Results on five molecules are retold here after patent US20110038861 (published 2011).

Read-outs that look alike come from different tables or passages of the source.

The target of assay [1] is Abeta 1-40 (human). The assay is described as follows: SPR. For orientation: In SPR one partner is held on a chip, and binding of the other changes the refractive index at the surface.
The target of assay [2] is Abeta 1-40 (human).
Another assay has as its target beta-APP (human). In words: ELISA.
In assay [3] the target is Abeta 1-40 (human). This is another data set of the same source.

Chain of Abeta 1-40 (human) (P05067 672-711): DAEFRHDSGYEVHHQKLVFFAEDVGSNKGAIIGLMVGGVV
Chain of beta-APP (human) (chain, as listed by the source): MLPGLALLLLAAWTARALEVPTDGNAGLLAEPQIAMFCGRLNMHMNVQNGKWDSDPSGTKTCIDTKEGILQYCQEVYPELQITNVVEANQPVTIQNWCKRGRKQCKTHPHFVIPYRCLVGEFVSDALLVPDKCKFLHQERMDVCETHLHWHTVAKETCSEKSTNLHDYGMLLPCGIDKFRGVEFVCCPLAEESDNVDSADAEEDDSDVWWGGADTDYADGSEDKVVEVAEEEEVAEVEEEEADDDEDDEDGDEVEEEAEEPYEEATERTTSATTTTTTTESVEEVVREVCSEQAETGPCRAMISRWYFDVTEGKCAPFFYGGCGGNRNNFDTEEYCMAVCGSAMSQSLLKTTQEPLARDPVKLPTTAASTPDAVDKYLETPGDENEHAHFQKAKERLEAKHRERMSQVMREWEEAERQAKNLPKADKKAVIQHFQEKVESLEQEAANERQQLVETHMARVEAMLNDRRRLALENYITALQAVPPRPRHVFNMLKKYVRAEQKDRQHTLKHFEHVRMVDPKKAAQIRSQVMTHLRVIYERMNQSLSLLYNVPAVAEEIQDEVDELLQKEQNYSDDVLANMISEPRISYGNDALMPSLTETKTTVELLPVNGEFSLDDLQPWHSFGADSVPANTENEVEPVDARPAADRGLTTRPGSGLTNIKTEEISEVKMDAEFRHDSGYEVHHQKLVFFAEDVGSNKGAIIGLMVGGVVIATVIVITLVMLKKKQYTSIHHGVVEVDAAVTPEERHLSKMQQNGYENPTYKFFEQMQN

B1: Humanized 2286 Fab (O8; VH3) (antibody, V domains shown)
VH: EVQLVESGGGLVQPGGSLRLSCAASYWMNWVRQAPGKGLEWVSEINPDSSTINYTPSLKDRFTISRDNAKNTLYLQMNSLRAEDTAVYYCARQMGYWGQGTTLTVSS
VL: DIQMTQSPSSLSASVGDRVTITCSASQGISNYLNWYQQKPGKAPKLLIYYTSSLHSGVPSRFSGSGSGTDFTFTISSLQPEDIATYYCQQYRKLPYTFGGGTKVEIKR
For orientation: Kd means a measure of binding affinity in units of concentration. B1 had a Kd with Abeta 1-40 [1] of 500 nM.

B2: Humanized 2286 Fab (O8; VH4) (antibody, V domains shown)
VH: QVQLQESGPGLVKPSETLSLTCTVSYWMNWIRQPPGKGLEWIGEINPDSSTINYTPSLKDRVTISKDTSKNQFSLKLSSVTAADTAVYYCARQMGYWGQGTLVTVSS
VL: B1 VL
Molecule B2 registered a Kd with Abeta 1-40 [1] of 500 nM.

B3: Mouse 2286 Fab (antibody, V domains shown)
VH: EVKLLESGGGLVQPGGSLKLSCAASGFDFSRYWMNWVRQAPGKGLEWIGEINPDSSTINYTPSLKDKFIISRDNAKNTLYLQMSKVRSEDTALYYCARQMGYWGQGTTLTVSS
VL: DIQMTQTTSSLSASLGDRVTISCSASQGISNYLNWFQQKPDGTVKLLIYYTSSLHSGVPSRFSGSGSGTDYSLTISNLEPEDIATYYCQQYRKLPYTFGGGTKLEIKR
In turn, B3 had a Kd with Abeta 1-40 [1] of 76 nM.

B4: 2286 (8A1.2A1) (antibody, V domains shown)
VH: B3 VH
VL: B3 VL
With B4, in the assay with Abeta 1-40 [2], the Kd is 2.7 nM. Also, the binding result with beta-APP was “no binding”.

B5: 2324 (10B10.2E6) (antibody, V domains shown)
VH: VTLKESGPGILKPSQTLSLTCSFSGFSLSTSGMGVGWIRQSSGKGLEWLAHIWWDDDKYYNPSLKSQLTISKDTSRNQVFLKITSVDTADTATYYCARRGVRHRDYFDYWGQGTTLTVSS
VL: DVLMTQTPLSLPVSLGDQASISCRSSQSIVHSNGNTYLEWYLQKPGQSPKLLIYKVSNRFSGVPDRFSGSGSGTDFTLKISRVEAEDLGVYYCFQGSRVPLTFGAGTKLELKR
For the molecule B5, the equilibrium dissociation constant (Kd) in the assay with Abeta 1-40 [3] turned out to be 0.9 nM. In addition, the binding result in the assay with beta-APP was “no binding”.
